Reference: patent US20190161555A1

B1: 1206/1207 (antibody, V domains shown)
VH: EVQLLESGGGLVQPGGSLRLSCAASGFTFSGSSMSWVRQAPGKGLEWVSSIYYSGSGTYYADSVKGRFTISRDNSKNTLYLQMNSLRAEDTAVYYCARYGRNVHPYNLDYWGQGTLVTVSS
VL: DIQMTQSPSSLSASVGDRVTITCRASQSISSYLNWYQQKPGKAPKLLIYAASSLQSGVPSRFSGSGSGTDFTLTISSLQPEDFATYYCQQGYYYLPTFGQGTKLEIK
B2: 1212/1213 (antibody, IgG1, V domains shown)
VH: EVQLLESGGGLVQPGGSLRLSCAASGFTFSSYAMSWVRQAPGKGLEWVSYISSYGGYTSYADSVKGRFTISRDNSKNTLYLQMNSLRAEDTAVYYCARYHSGVLDYWGQGTLVTVSS
VL: DIQMTQSPSSLSASVGDRVTITCRASQSISSYLNWYQQKPGKAPKLLIYAASSLQSGVPSRFSGSGSGTDFTLTISSLQPEDFATYYCQQYYYHYLLTFGQGTKLEIK
B3: 1524/1525 (antibody, V domains shown)
VH: EVQLLESGGGLVQPGGSLRLSCAASGFTFGSYYMGWVRQAPGKGLEWVSSIGSYYGYTYYADSVKGRFTISRDNSKNTLYLQMNSLRAEDTAVYYCARHDYGALDYWGQGTLVTVSS
VL: DIQMTQSPSSLSASVGDRVTITCRASQSISSYLNWYQQKPGKAPKLLIYAASSLQSGVPSRFSGSGSGTDFTLTISSLQPEDFATYYCQQYGPSGLFTFGQGTKLEIK
B4: 1526/1527 (antibody, V domains shown)
VH: EVQLLESGGGLVQPGGSLRLSCAASGFTFSGYSMYWVRQAPGKGLEWVSGIGYSGYGTYYADSVKGRFTISRDNSKNTLYLQMNSLRAEDTAVYYCARYYFHDYAAYSLDYWGQGTLVTVSS
VL: DIQMTQSPSSLSASVGDRVTITCRASQSISSYLNWYQQKPGKAPKLLIYAASSLQSGVPSRFSGSGSGTDFTLTISSLQPEDFATYYCQQYGSDSLLTFGQGTKLEIK
B5: 1514/1515 (antibody, V domains shown)
VH: EVQLLESGGGLVQPGGSLRLSCAASGFTFGYYYMSWVRQAPGKGLEWVSGISSYGSYTYYADSVKGRFTISRDNSKNTLYLQMNSLRAEDTAVYYCARSGYSNWANSFDYWGQGTLVTVSS
VL: DIQMTQSPSSLSASVGDRVTITCRASQSISSYLNWYQQKPGKAPKLLIYAASSLQSGVPSRFSGSGSGTDFTLTISSLQPEDFATYYCQQGDYTLFTFGQGTKLEIK
B6: 1166/1167 (antibody, V domains shown)
VH: EVQLLESGGGLVQPGGSLRLSCAASGFTFGGYYMSWVRQAPGKGLEWVSAISGSGGSTYYADSVKGRFTISRDNSKNTLYLQMNSLRAEDTAVYYCARYDYASMDYWGQGTLVTVSS
VL: DIQMTQSPSSLSASVGDRVTITCRASQSISSYLNWYQQKPGKAPKLLIYAASSLQSGVPSRFSGSGSGTDFTLTISSLQPEDFATYYCQQYYWYGLSTFGQGTKLEIK

Tests used:
[1] = target: human/mouse 5T4 chimera aa173-420 (human; mouse) (UniProt Q13641); assay: flow cytometry, cells with 5T4 chimera; % positive cells over that of the best clone
[2] = target: Chimeric OX40 construct 1544 (human; mouse) (UniProt P47741); assay: flow cytometry, 293-F cells transfected with the construct
[3] = target: Chimeric OX40 construct 1545 (human; mouse) (UniProt P43489); assay: as above
[4] = target: Chimeric OX40 construct 1546 (human; mouse) (UniProt P43489); assay: as above
[5] = target: Chimeric OX40 construct 1547 (human; mouse) (UniProt P43489); assay: as above
[6] = target: Chimeric OX40 construct 1548 (human; mouse) (UniProt P43489); assay: as above
[7] = target: Chimeric OX40 construct 1549 (human; mouse) (UniProt P47741); assay: as above

Sequence of Chimeric OX40 construct 1546 (human; mouse) (P43489 other isoform, or with tags, fused parts or gaps mutant, form in doubt): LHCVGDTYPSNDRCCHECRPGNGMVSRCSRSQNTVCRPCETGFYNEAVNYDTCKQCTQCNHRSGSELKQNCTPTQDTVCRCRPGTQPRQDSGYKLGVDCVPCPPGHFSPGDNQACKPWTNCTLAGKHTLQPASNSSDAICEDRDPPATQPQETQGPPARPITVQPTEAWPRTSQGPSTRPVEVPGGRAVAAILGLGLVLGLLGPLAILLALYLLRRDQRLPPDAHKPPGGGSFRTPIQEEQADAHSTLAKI
Sequence of Chimeric OX40 construct 1547 (human; mouse) (P43489 other isoform, or with tags, fused parts or gaps mutant, form in doubt): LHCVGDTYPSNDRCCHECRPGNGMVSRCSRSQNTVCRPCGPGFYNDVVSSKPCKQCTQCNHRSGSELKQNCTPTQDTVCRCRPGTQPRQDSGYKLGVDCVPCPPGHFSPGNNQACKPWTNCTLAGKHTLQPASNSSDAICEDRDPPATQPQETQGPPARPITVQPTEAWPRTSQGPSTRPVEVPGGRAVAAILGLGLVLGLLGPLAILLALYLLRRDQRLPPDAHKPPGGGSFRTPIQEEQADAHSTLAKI
Sequence of Chimeric OX40 construct 1545 (human; mouse) (P43489 other isoform, or with tags, fused parts or gaps mutant, form in doubt): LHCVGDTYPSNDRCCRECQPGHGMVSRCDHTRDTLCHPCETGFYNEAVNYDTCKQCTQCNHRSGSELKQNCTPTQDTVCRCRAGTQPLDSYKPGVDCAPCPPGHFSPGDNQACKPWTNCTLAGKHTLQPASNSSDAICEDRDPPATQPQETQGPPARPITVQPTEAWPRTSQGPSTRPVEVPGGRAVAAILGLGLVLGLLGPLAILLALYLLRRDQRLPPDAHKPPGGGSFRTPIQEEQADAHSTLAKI
Sequence of Chimeric OX40 construct 1544 (human; mouse) (P43489 other isoform, or with tags, fused parts or gaps mutant, form in doubt): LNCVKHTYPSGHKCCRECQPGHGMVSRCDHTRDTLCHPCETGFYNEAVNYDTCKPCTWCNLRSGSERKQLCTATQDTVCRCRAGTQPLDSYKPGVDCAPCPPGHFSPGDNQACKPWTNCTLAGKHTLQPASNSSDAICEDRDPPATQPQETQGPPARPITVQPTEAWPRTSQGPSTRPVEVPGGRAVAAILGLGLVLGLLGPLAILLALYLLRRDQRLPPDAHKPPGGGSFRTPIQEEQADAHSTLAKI
Sequence of Chimeric OX40 construct 1548 (human; mouse) (P43489 other isoform, or with tags, fused parts or gaps mutant, form in doubt): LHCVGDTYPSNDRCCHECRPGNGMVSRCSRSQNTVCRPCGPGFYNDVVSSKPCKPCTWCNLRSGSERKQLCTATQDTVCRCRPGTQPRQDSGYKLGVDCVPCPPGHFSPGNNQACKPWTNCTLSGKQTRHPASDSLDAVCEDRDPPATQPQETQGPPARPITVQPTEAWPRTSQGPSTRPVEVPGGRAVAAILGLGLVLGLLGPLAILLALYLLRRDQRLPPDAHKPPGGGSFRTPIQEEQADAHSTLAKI
Sequence of human/mouse 5T4 chimera aa173-420 (human; mouse) (Q13641 other isoform, or with tags, fused parts or gaps mutant limits assumed, form in doubt): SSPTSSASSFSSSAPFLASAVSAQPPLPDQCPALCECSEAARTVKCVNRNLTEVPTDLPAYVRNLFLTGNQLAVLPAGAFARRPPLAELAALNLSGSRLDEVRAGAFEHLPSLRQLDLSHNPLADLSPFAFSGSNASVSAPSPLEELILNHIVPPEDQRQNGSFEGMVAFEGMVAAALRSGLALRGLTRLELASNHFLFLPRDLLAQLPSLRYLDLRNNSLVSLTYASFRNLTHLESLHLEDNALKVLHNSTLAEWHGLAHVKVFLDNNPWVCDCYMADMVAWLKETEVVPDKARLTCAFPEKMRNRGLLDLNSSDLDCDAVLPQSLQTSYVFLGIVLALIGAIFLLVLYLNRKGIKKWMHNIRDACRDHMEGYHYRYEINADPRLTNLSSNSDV

Row | Binder | normalized % positive cells [1] | relative MFI (fold over isotype control) [2] | relative MFI (fold over isotype control) [3] | relative MFI (fold over isotype control) [4] | relative MFI (fold over isotype control) [5] | relative MFI (fold over isotype control) [6] | relative MFI (fold over isotype control) [7]
1 | B1 | 0.3 |  |  |  |  |  | 
2 | B2 | -0.01 |  |  |  |  |  | 
3 | B3 |  | 1.5 | 0.9 | 0.9 | 1 | 15.4 | 11.2
4 | B4 |  | 1.1 | 1.3 | 0.9 | 1 | 12.7 | 8.5
5 | B5 |  | 11.6 | 1.2 | 0.9 | 1.1 | 17.2 | 10.6
6 | B6 |  | 14.2 | 1 | 0.8 | 15.2 | 15.8 | 11.3
